{"source": "patent US20130130922A1", "about": "“ANALYSIS OF METHYLATION SITES” (Centre for Addiction and Mental Health, priority 2011, published 2013)", "tested_on": "Control-H reference system (specific and nonspecific 200 bp DNA fragments from pBR322)", "assay": "mTAG labeling, biotinylation, capture on streptavidin beads and multiplex real-time PCR of Control-H reference system", "details": "Control-H alone; Ado-11-amine cofactor; 228 nM enzyme; 37° C. 2 hours; percentage of material used for bead separation"}
{"molecule": "HpaII (Q104A/N335A): His6-tagged M.HpaII C5 DNA methyltransferase (CCGG target site) double-alanine mutant Q104A/N335A (protein, UniProt P15446 1-358, looked up, variant Q104A N335A, His6 tag) Type II methyltransferase …: MKDVLDDNLLEEPAAQYSLFEPESNPNLREKFTFIDLFAGIGGFRIAMQNLGGKCIFSSEWDEQAQKTYEANFGDLPYGDITLEETKAFIPEKFDILCAGFPCAAFSIAGKRGGFEDTRGTLFFDVAEIIRRHQPKAFFLENVKGLKNHDKGRTLKTILNVLREDLGYFVPEPAIVNAKNFGVPQNRERIYIVGFHKSTGVNSFSYPEPLDKIVTFADIREEKTVPTKYYLSTQYIDTLRKHKERHESKGNGFGYEIIPDDGIANAIVVGGMGRERNLVIDHRITDFTPTTNIKGEVNREGIRKMTPREWARLQGFPDSYVIPVSDASAYKQFGASVAVPAIQATGKKILEKLGNLYD", "values": [{"measurement": "level of nonspecific probe found on beads", "result": "5-6%"}, {"measurement": "yield of unmethylated (specific) probe recovered on beads", "result": "50-60%"}]}
